From US20160030510

Target: human tau protein, P10636
Sequence (P10636 whole entry, looked up): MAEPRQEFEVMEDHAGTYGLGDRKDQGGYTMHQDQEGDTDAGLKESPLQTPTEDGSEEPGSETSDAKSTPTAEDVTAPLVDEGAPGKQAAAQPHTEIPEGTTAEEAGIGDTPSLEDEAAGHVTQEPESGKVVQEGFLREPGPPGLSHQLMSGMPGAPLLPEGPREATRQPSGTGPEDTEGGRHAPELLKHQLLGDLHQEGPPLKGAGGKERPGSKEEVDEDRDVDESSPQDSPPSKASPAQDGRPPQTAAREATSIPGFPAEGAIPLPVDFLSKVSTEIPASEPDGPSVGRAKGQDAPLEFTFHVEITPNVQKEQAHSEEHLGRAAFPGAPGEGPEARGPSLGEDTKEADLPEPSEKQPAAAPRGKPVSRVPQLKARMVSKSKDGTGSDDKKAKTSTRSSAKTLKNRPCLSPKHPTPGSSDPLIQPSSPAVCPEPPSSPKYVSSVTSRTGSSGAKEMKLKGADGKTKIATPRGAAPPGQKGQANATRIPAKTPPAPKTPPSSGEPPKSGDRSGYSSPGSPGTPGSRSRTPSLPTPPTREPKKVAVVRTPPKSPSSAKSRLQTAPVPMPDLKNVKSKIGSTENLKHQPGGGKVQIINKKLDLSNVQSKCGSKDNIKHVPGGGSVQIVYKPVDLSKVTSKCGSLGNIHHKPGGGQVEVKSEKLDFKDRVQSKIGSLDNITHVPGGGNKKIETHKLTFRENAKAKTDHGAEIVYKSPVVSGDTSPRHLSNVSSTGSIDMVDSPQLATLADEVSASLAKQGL

B1: human MARK4 (microtubule affinity regulating kinase 4) (protein)
chain: MSSRTVLAPGNDRNSDTHGTLGSGRSSDKGPSWSSRSLGARCRNSIASCPEEQPHVGNYRLLRTIGKGNFAKVKLARHILTGREVAIKIIDKTQLNPSSLQKLFREVRIMKGLNHPNIVKLFEVIETEKTLYLVMEYASAGEVFDYLVSHGRMKEKEARAKFRQIVSAVHYCHQKNIVHRDLKAENLLLDAEANIKIADFGFSNEFTLGSKLDTFCGSPPYAAPELFQGKKYDGPEVDIWSLGVILYTLVSGSLPFDGHNLKELRERVLRGKYRVPFYMSTDCESILRRFLVLNPAKRCTLEQIMKDKWINIGYEGEELKPYTEPEEDFGDTKRIEVMVGMGYTREEIKESLTSQKYNEVTATYLLLGRKTEEGGDRGAPGLALARVRAPSDTTNGTSSSKGTSHSKGQRSSSSTYHRQRRHSDFCGPSPAPLHPKRSPTSTGEAELKEERLPGRKASCSTAGSGSRGLPPSSPMVSSAHNPNKAEIPERRKDSTSTPNNLPPSMMTRRNTYVCTERPGAERPSLLPNGKENSSGTPRVPPASPSSHSLAPPSGERSRLARGSTIRSTFHGGQVRDRRAGGGGGGGVQNGPPASPTLAHEAAPLPAGRPRPTTNLFTKLTSKLTRRVADEPERIGGPEVTSCHLPWDQTETAPRLLRFPWSVKLTSSRPPEALMAALRQATAAARCRCRQPQPFLLACLHGGAGGPEPLSHFEVEVCQLPRPGLRGVLFRRVAGTALAFRTLVTRISNDLEL
With B1 the “in vitro kinase assay: phospho-tau, Western blot” value was “the levels of total tau and phospho-tau generated by MARK4 were detected by Western blot analysis”.
